In this data set the target is T1, PUF4 RNA-binding domain (Saccharomyces cerevisiae, UniProt P25339 537-888).
T1 sequence: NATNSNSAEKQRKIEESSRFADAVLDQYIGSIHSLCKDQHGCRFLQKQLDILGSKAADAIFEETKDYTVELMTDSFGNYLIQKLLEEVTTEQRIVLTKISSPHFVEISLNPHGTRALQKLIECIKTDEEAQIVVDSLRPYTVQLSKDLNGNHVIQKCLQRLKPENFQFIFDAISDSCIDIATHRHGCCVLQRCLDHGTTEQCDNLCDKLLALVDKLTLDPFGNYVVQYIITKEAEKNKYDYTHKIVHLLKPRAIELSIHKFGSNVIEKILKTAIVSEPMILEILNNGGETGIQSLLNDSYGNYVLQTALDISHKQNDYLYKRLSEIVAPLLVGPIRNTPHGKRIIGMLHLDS
Description: Mg; RNA-MaP; 20 mM Na-HEPES pH 7.4, 30 mM KOAc, 0.75 mM MgCl2, 0.1% Tween-20, 5% glycerol, 0.1 mg/mL BSA, 2 mM DTT; 25 C; 0.0125-409.6 nM protein. The following applies: tags: N-His6-TEV cleaved; C-SNAP kept, Cy3B-labelled; label: tethered on chip by stalled RNA polymerase.

A value given as a limit tells only on which side of the number the result lay.

For orientation: Kd means the constant that tells how readily two partners part at equilibrium. Read a high Kd as a looser complex.

B1: Ib_S4_P4E.1_K4.1_C4.1_H4.1_[T3C]_A4.1_F4.1_[A9C]_T4.1 (ssRNA)
RNA: UUUGACAACUGAUCGUUCUUUCUUGCAUAUUCUUCUUUCUCGAUCAGUUGUCUUU
For B1, the Kd was > 2300 nM.

B2: Ic_S4_P4E.1_K4.1_C4.1_H4.1_A4.1_[A6C]_F4.1_[A9G]_T4.1 (ssRNA)
RNA: UUUGACAACUGAUCGUUCUUUCUUGUAUCUUGUUCUUUCUCGAUCAGUUGUCUUU
The molecule B2 registered a Kd of 11.3 nM.

B3: Ib_S4_P4E.1_K4.1_C4.1_H4.1_[T3C]_A4.1_F4.1_[A9T]_T4.1 (ssRNA)
RNA: UUUGACAACUGAUCGUUCUUUCUUGCAUAUUUUUCUUUCUCGAUCAGUUGUCUUU
B3 returned a Kd of 1000 nM.

B4: Ib_S4_P4E.1_K4.1_C4.1_H4.1_A4.1_[T7C]_F4.1_[A9C]_T4.1 (ssRNA)
RNA: UUUGACAACUGAUCGUUCUUUCUUGUAUACUCUUCUUUCUCGAUCAGUUGUCUUU
B4: the Kd was 10.1 nM.

B5: Ib_S4_P4E.1_K4.1_C4.1_H4.1_[T1C]_[G2C]_A4.1_F4.1_T4.1 (ssRNA)
RNA: UUUGACAACUGAUCGUUCUUUCUCCUAUAUUAUUCUUUCUCGAUCAGUUGUCUUU
In turn, B5 registered a Kd of 331 nM.

B6: Ib_S4_P4E.1_K4.1_C4.1_H4.1_[A4C]_A4.1_F4.1_[A9C]_T4.1 (ssRNA)
RNA: UUUGACAACUGAUCGUUCUUUCUUGUCUAUUCUUCUUUCUCGAUCAGUUGUCUUU
B6 yielded a dissociation constant (Kd) of 501 nM.

B7: Ib_S4_P4E.1_K4.1_C4.1_H4.1_[T1A]_[G2C]_A4.1_F4.1_T4.1 (ssRNA)
RNA: UUUGACAACUGAUCGUUCUUUCUACUAUAUUAUUCUUUCUCGAUCAGUUGUCUUU
The molecule B7 showed a dissociation constant Kd of 481 nM.

B8: Ib_S4_P4E.1_K4.1_C4.1_H4.1_A4.1_[T7G]_F4.1_[T8C]_T4.1 (ssRNA)
RNA: UUUGACAACUGAUCGUUCUUUCUUGUAUAGCAUUCUUUCUCGAUCAGUUGUCUUU
The molecule B8 came in with a Kd of 51.1 nM.

B9: Ib_S4_P4E.1_K4.1_C4.1_H4.1_A4.1_[T7C]_F4.1_[T8A]_T4.1 (ssRNA)
RNA: UUUGACAACUGAUCGUUCUUUCUUGUAUACAAUUCUUUCUCGAUCAGUUGUCUUU
B9 gave an equilibrium dissociation constant (Kd) of 18.4 nM. This Kd lies about 2.8-fold lower than the previous one.

B10: Ib_S4_P4E.1_K4.1_C4.1_H4.1_A4.1_[A6T]_F4.1_[A9G]_T4.1 (ssRNA)
RNA: UUUGACAACUGAUCGUUCUUUCUUGUAUUUUGUUCUUUCUCGAUCAGUUGUCUUU
B10 came in with an equilibrium dissociation constant (Kd) of 8.2 nM. Compared with the last molecule, the Kd is about 2.2-fold lower.

B11: Ib_S4_P4E.1_K4.1_C4.1_H4.1_A4.1_[A6C]_F4.1_[A9T]_T4.1 (ssRNA)
RNA: UUUGACAACUGAUCGUUCUUUCUUGUAUCUUUUUCUUUCUCGAUCAGUUGUCUUU
Consider B11, for which the Kd was 10.8 nM.

B12: Ic_S4_P4E.1_K4.1_C4.1_H4.1_A4.1_[T7C]_F4.1_[A9T]_T4.1 (ssRNA)
RNA: UUUGACAACUGAUCGUUCUUUCUUGUAUACUUUUCUUUCUCGAUCAGUUGUCUUU
B12 showed a Kd of 7 nM.

B13: Ib_S4_P4E.1_K4.1_C4.1_H4.1_[A4C]_A4.1_F4.1_[A9T]_T4.1 (ssRNA)
RNA: UUUGACAACUGAUCGUUCUUUCUUGUCUAUUUUUCUUUCUCGAUCAGUUGUCUUU
Regarding B13, the affinity, expressed as Kd, was 268 nM.

B14: Ib_S4_P4E.1_K4.1_C4.1_H4.1_A4.1_[A6G]_F4.1_[T8C]_T4.1 (ssRNA)
RNA: UUUGACAACUGAUCGUUCUUUCUUGUAUGUCAUUCUUUCUCGAUCAGUUGUCUUU
B14 had a Kd of 136 nM.

B15: Ib_S4_P4E.1_K4.1_C4.1_H4.1_[A4C]_A4.1_F4.1_[A9G]_T4.1 (ssRNA)
RNA: UUUGACAACUGAUCGUUCUUUCUUGUCUAUUGUUCUUUCUCGAUCAGUUGUCUUU
Regarding B15, the Kd was determined as 252 nM.

B16: Ib_S4_P4E.1_K4.1_C4.1_H4.1_A4.1_[T5C]_F4.1_[T8C]_T4.1 (ssRNA)
RNA: UUUGACAACUGAUCGUUCUUUCUUGUACAUCAUUCUUUCUCGAUCAGUUGUCUUU
In turn, B16 came in with a Kd of 8.87 nM.

B17: Ib_S4_P4E.1_K4.1_C4.1_H4.1_A4.1_[A6C]_F4.1_[T8C]_T4.1 (ssRNA)
RNA: UUUGACAACUGAUCGUUCUUUCUUGUAUCUCAUUCUUUCUCGAUCAGUUGUCUUU
B17 came in with a Kd of 22.1 nM.

B18: Ic_S4_P4E.1_K4.1_C4.1_H4.1_A4.1_[T7G]_F4.1_[A9G]_T4.1 (ssRNA)
RNA: UUUGACAACUGAUCGUUCUUUCUUGUAUAGUGUUCUUUCUCGAUCAGUUGUCUUU
Molecule B18 had a dissociation constant Kd of 13.5 nM.

B19: Ib_S4_P4E.1_K4.1_C4.1_H4.1_A4.1_[T5A]_F4.1_[T8A]_T4.1 (ssRNA)
RNA: UUUGACAACUGAUCGUUCUUUCUUGUAAAUAAUUCUUUCUCGAUCAGUUGUCUUU
Consider B19, for which the Kd is 27.4 nM.

B20: Ib_S4_P4E.1_K4.1_C4.1_H4.1_[A4G]_A4.1_F4.1_[A9C]_T4.1 (ssRNA)
RNA: UUUGACAACUGAUCGUUCUUUCUUGUGUAUUCUUCUUUCUCGAUCAGUUGUCUUU
B20 had a Kd of 12.1 nM. Against the preceding molecule, the Kd is about 2.3-fold lower.

B21: Ib_S4_P4E.1_K4.1_C4.1_H4.1_[T1C]_[G2T]_A4.1_F4.1_T4.1 (ssRNA)
RNA: UUUGACAACUGAUCGUUCUUUCUCUUAUAUUAUUCUUUCUCGAUCAGUUGUCUUU
Molecule B21 displayed a Kd of 401 nM. Compared with the last molecule, the Kd is about 33-fold higher.

B22: Ib_S4_P4E.1_K4.1_C4.1_H4.1_A4.1_[T5A]_F4.1_[A9G]_T4.1 (ssRNA)
RNA: UUUGACAACUGAUCGUUCUUUCUUGUAAAUUGUUCUUUCUCGAUCAGUUGUCUUU
On to B22, for which binding was characterised by a dissociation constant (Kd) of 19.7 nM.

B23: Ib_S4_P4E.1_K4.1_C4.1_H4.1_A4.1_[A6G]_F4.1_[A9C]_T4.1 (ssRNA)
RNA: UUUGACAACUGAUCGUUCUUUCUUGUAUGUUCUUCUUUCUCGAUCAGUUGUCUUU
In turn, B23 yielded a Kd of 15.5 nM.

B24: Ib_S4_P4E.1_K4.1_C4.1_H4.1_A4.1_[T7A]_F4.1_[T8C]_T4.1 (ssRNA)
RNA: UUUGACAACUGAUCGUUCUUUCUUGUAUAACAUUCUUUCUCGAUCAGUUGUCUUU
In the case of B24, binding was characterised by a dissociation constant (Kd) of 19.6 nM. This Kd and that of the molecule before are within 1.5-fold of each other.

B25: Ib_S4_P4E.1_K4.1_C4.1_H4.1_A4.1_[A6T]_F4.1_[T8C]_T4.1 (ssRNA)
RNA: UUUGACAACUGAUCGUUCUUUCUUGUAUUUCAUUCUUUCUCGAUCAGUUGUCUUU
B25 gave a Kd of 84.2 nM.

B26: Ib_S4_P4E.1_K4.1_C4.1_H4.1_A4.1_[A6T]_F4.1_[A9C]_T4.1 (ssRNA)
RNA: UUUGACAACUGAUCGUUCUUUCUUGUAUUUUCUUCUUUCUCGAUCAGUUGUCUUU
B26 came in with a Kd of 17.8 nM.

B27: Ib_S4_P4E.1_K4.1_C4.1_H4.1_[A4T]_A4.1_F4.1_[A9C]_T4.1 (ssRNA)
RNA: UUUGACAACUGAUCGUUCUUUCUUGUUUAUUCUUCUUUCUCGAUCAGUUGUCUUU
Take B27: the Kd stood at 406 nM.

B28: Ib_S4_P4E.1_K4.1_C4.1_H4.1_A4.1_[T5A]_F4.1_[T8C]_T4.1 (ssRNA)
RNA: UUUGACAACUGAUCGUUCUUUCUUGUAAAUCAUUCUUUCUCGAUCAGUUGUCUUU
In turn, B28 had a Kd of 78.4 nM.

B29: Ic_S4_P4E.1_K4.1_C4.1_H4.1_A4.1_[T5C]_F4.1_[A9T]_T4.1 (ssRNA)
RNA: UUUGACAACUGAUCGUUCUUUCUUGUACAUUUUUCUUUCUCGAUCAGUUGUCUUU
In the case of B29, binding was characterised by a dissociation constant (Kd) of 1.94 nM.

B30: Ib_S4_P4E.1_K4.1_C4.1_H4.1_A4.1_[T7A]_F4.1_[T8A]_T4.1 (ssRNA)
RNA: UUUGACAACUGAUCGUUCUUUCUUGUAUAAAAUUCUUUCUCGAUCAGUUGUCUUU
Molecule B30 registered a Kd of 29.8 nM.

B31: Ib_S4_P4E.1_K4.1_C4.1_H4.1_[T1G]_[G2T]_A4.1_F4.1_T4.1 (ssRNA)
RNA: UUUGACAACUGAUCGUUCUUUCUGUUAUAUUAUUCUUUCUCGAUCAGUUGUCUUU
Consider B31, for which binding was characterised by a dissociation constant (Kd) of 41.2 nM.

B32: Ib_S4_P4E.1_K4.1_C4.1_H4.1_[T1C]_[G2A]_A4.1_F4.1_T4.1 (ssRNA)
RNA: UUUGACAACUGAUCGUUCUUUCUCAUAUAUUAUUCUUUCUCGAUCAGUUGUCUUU
With B32, the Kd worked out at 168 nM.

B33: Ia_S4_P3E.1_K3.1_C3.1_H3.1_[T1A]_A3.1_F3.1_T3.1 (ssRNA)
RNA: UUUGACAACUGAUCGUUCUUUCUAGUAUAUAUUCUUUCUCGAUCAGUUGUCUUU
The molecule B33 returned a dissociation constant Kd of 819 nM.

B34: Ia_S4_P3E.1_K3.1_C3.1_H3.1_[G2C]_A3.1_F3.1_T3.1 (ssRNA)
RNA: UUUGACAACUGAUCGUUCUUUCUUCUAUAUAUUCUUUCUCGAUCAGUUGUCUUU
Molecule B34 yielded a Kd of 360 nM.

B35: Ia_S4_P3E.1_K3.1_C3.1_H3.1_[A4T]_A3.1_F3.1_T3.1 (ssRNA)
RNA: UUUGACAACUGAUCGUUCUUUCUUGUUUAUAUUCUUUCUCGAUCAGUUGUCUUU
As for B35, binding was characterised by a dissociation constant (Kd) of 86.8 nM.

Values taken from PMC9352680, “A comprehensive thermodynamic model for RNA binding by the Saccharomyces cerevisiae Pumilio protein PUF4”.
